T1: FZD8 cysteine-rich domain (CRD), MYC-tagged and GPI-anchored on CHO cells (human)
T1 sequence (chain, GPI anchor): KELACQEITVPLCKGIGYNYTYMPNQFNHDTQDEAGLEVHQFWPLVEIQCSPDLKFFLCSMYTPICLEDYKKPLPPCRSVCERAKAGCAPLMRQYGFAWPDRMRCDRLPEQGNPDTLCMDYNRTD


Target: T1, FZD8 cysteine-rich domain (CRD), MYC-tagged and GPI-anchored on CHO cells (human)
Assay: flow cytometry, CHO-CRD cells

median fluorescence | Binder
7.7 | Fab-2925 (Fab, V domains shown) VH: EVQLVESGGGLVQPGGSLRLSCAASGFNLSYSSMHWVRQAPGKGLEWVASIYPSYGSTYYADSVKGRFTISADTSKNTAYLQMNSLRAEDTAVYYCARYGYFGLDYWGQGTLVTVSS VL: DIQMTQSPSSLSASVGDRVTITCRASQSVSSAVAWYQQKPGKAPKLLIYSASSLYSGVPSRFSGSRSGTDFTLTISSLQPEDFATYYCQQAWVYASLFTFGQGTKVEIK
8.17 | Fab-2905 (Fab, V domains shown) VH: EVQLVESGGGLVQPGGSLRLSCAASGFNLSYYYMHWVRQAPGKGLEWVASIYSSYSYTSYADSVKGRFTISADTSKNTAYLQMNSLRAEDTAVYYCARSGYALDYWGQGTLVTVSS VL: DIQMTQSPSSLSASVGDRVTITCRASQSVSSAVAWYQQKPGKAPKLLIYSASSLYSGVPSRFSGSRSGTDFTLTISSLQPEDFATYYCQQSSWYYGYPFTFGQGTKVEIK
